Data on four molecules can be found in patent publication US20110054149A1 (published 2011).

For assay [1], the target named is T1, GST-human NOGO-A56 (human, UniProt Q9NQC3 586-785).
T1 construct: also called hNOGO; recombinant human NOGO; not shown: Glutathione S-transferase (GST) tag encoded by vector pGEX-6P1, N-terminal to the NOGO-A fragment; the tag and linker se
T1 sequence: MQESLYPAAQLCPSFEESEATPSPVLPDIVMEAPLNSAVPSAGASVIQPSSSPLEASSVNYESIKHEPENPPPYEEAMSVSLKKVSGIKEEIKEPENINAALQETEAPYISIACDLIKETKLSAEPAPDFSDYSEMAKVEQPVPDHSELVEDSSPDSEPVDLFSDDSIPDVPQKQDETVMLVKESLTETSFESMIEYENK
Put plainly: SPR (Biacore 3000), GST-human NOGO-A56 on CM5 chip, antibody as analyte; single experiment. Here is the method:
(§1) The binding kinetics of the anti-NOGO monoclonal antibody (mAb) to recombinantly expressed human NOGO-A (GST-human NOGO-A56) was analysed using the Biacore3000 biosensor. The hNOGO-A chip was prepared as follows:
(§2) hNOGO (GST-human NOGO-A56) was immobilised to a CM5 chip by primary amine coupling using the Biacore Wizard program designed for targeted immobilisation levels. The CM5 sensor surface was activated by passing a solution of 50 mM N-hydroxy-succinimide (NHS) and 200 mM N-ethyl-N′-dimethylaminopropyl […] (EDC). Then hNOGO in sodium acetate buffer, pH5.0 or pH 4.5, was passed over the chip and immobilised. After immobilisation was complete any still activated esters were blocked by an injection of 1M ethanolamine hydrochloride, pH8.5.
(§3) The anti-NOGO mAbs were diluted down in HBS-EP (10 mM HEPES, pH 7.4, 150 mM NaCl, 3 mM EDTA, and 0.005% P-20 surfactant) and binding studies were carried out at range of defined antibody concentrations. All runs were referenced against a blanked sensor surface (one that had been activated and blocked as described earlier but had no addition of ligand). Analysis of binding was carried out using the BIAevaluation kinetic analysis software version 4.1. Biacore analysis of other antibodies of the invention essentially followed the same protocol as described herein.

In assay [2] the target is T1, GST-human NOGO-A56. Described as above. As to the method:
as §1, §2, §3
This is another data set of the same source.

Assay [3] concerns the target T1, GST-human NOGO-A56. Put plainly: SPR (Biacore 3000), GST-human NOGO-A56 amine-coupled to CM5 chip, antibody as analyte; mean (SD) of four experiments. Here is the method: as §1, §2, §3
On the technique in general: In SPR one partner is held on a chip, and binding of the other changes the refractive index at the surface.

For assay [4], the target named is T1, GST-human NOGO-A56. Put plainly: SPR off-rate ranking (Biacore), CHO-K1 transfection supernatant over GST-human NOGO-A56 chip; mean (SD) of three experiments. As to the method:
as §2
(§4) The hNOGO chip was prepared as for kinetic analysis. Cell supernatants where taken directly from transient transfections of CHO—K1 cells. These were passed directly over the sensor surface and the interaction measured. A mock transfected cell supernatant was used for double referencing to remove any artefacts due to the tissue culture media. All runs were referenced against a blanked sensor surface (one that had been activated and blocked as described earlier but had no addition of ligand). Analysis of binding was carried out using the BIAevaluation kinetic analysis software version 4.1.

Assay [5] deals with T1, GST-human NOGO-A56. Put plainly: SPR off-rate ranking (Biacore), CHO-K1 transfection supernatant over GST-human NOGO-A56 chip; mean (SD) of two experiments. Here is the method:
as §2, §4

Assay [6] has as its target T1, GST-human NOGO-A56. Put plainly: SPR (Biacore 3000), GST-human NOGO-A56 on CM5 chip, antibody as analyte; mean (SD) of two experiments. Here is the method: as §1, §2, §3
Assay [7] concerns the target T1, GST-human NOGO-A56. Put plainly: SPR (BiaCore kinetic analysis), told in the summary section.

Changes are numbered by the printed parent chain.

B1: H6L13 (antibody, human IgG1, kappa, V domains shown)
VH: QVQLVQSGAEVKKPGASVKVSCKASGYTFTSYWMHWVRQAPGQGLEWIGNINPSNGGTNYNEKFKSRATMTRDTSTSTAYMELSSLRSEDTAVYYCELGQGYWGQGTLVTVSS
VL: DIVMTQSPLSLPVTLGQPASISCRSSKSLLYKDGKTYLNWFQQRPGQSPQLLIYLMSTRASGVPDRFSGGGSGTDFTLKISRVEAEDVGVYYCQQLVEYPLTFGQGTKLEIKR
notes: Humanised 2A10; human gamma-1 mutated constant region, human kappa; also called H6L13 FL
The term Kd denotes a measure of binding affinity in units of concentration. A word on the koff: it is the rate constant with which the complex falls apart. One may read the kon as the rate constant with which the complex forms. Low readings indicate slower complex formation, high ones faster complex formation. On to B1, for which the Kd amounted to 7.9 nM with GST-human NOGO-A56 [1], 7.3 nM in the assay with GST-human NOGO-A56 [2] and 7.68 nM in the assay with GST-human NOGO-A56 [3]. The koff in the assay with GST-human NOGO-A56 [1] came to 0.0233 s⁻¹; in the assay with GST-human NOGO-A56 [2], 0.013 s⁻¹; with GST-human NOGO-A56 [3] it was 0.0137 s⁻¹; with GST-human NOGO-A56 [4], 0.0173 s⁻¹. For the same molecule, the results for the kon with GST-human NOGO-A56 [1], in the assay with GST-human NOGO-A56 [2] and in the assay with GST-human NOGO-A56 [3] were 2.95e+06 M⁻¹ s⁻¹, 1.77e+06 M⁻¹ s⁻¹ and 1.82e+06 M⁻¹ s⁻¹, respectively.

B2: H18L16 (antibody, human IgG1, kappa, V domains shown)
VH: B1 VH with K12V, V20L, R38K, A40R, R67K, M70L, R72V, T74K, T76S, T91S
VL: B1 VL with L11N, A19V, Q42L
notes: Humanised 2A10; human gamma-1 mutated constant region, human kappa; also called H18L16 FL
In the assay with GST-human NOGO-A56 [3], B2 yielded a Kd of 1.62 nM, a koff of 0.00586 s⁻¹ and a kon of 3.64e+06 M⁻¹ s⁻¹. In the assay with GST-human NOGO-A56 [5], the koff was determined as 0.00687 s⁻¹.

B3: HcLc (chimera of 2A10: murine 2A10 VH and VL with human IgG constant regions) (antibody, V domains shown)
VH: QVQLQQPGTELVKPGASVKLSCKASGYTFTSYWMHWVKQRPGQGLEWIGNINPSNGGTNYNEKFKSKATLTVDKSSSTAYMQLSSLTSEDSAVYYCELGQGYWGQGTLVTVSS
VL: DIVITQDELSNPVTSGESVSISCRSSKSLLYKDGKTYLNWFLQRPGQSPQLLIYLMSTRASGVSDRFSGSGSGTDFTLEISRVKAEDVGVYYCQQLVEYPLTFGAGTKLELKR
notes: also called 2A10 chimeric antibody; the chimera
In the case of B3, the values for the Kd with GST-human NOGO-A56 [2], with GST-human NOGO-A56 [6] and with GST-human NOGO-A56 [3] were 1.6 nM, 0.995 nM and 1.41 nM, respectively. Besides, the koff with GST-human NOGO-A56 [2] worked out at 0.00412 s⁻¹; in the assay with GST-human NOGO-A56 [6] it was 0.00346 s⁻¹; in the assay with GST-human NOGO-A56 [3], 0.00378 s⁻¹; in the assay with GST-human NOGO-A56 [5], 0.00376 s⁻¹. For the same molecule, the kon in the assay with GST-human NOGO-A56 [2] turned out to be 2.62e+06 M⁻¹ s⁻¹; with GST-human NOGO-A56 [6], 3.52e+06 M⁻¹ s⁻¹; in the assay with GST-human NOGO-A56 [3], 2.7e+06 M⁻¹ s⁻¹.

B4: murine monoclonal antibody 2A10 (antibody, V domains shown)
VH: B3 VH with L108T, V109L
VL: DIVITQDELSNPVTSGESVSISCRSSKSLLYKDGKTYLNWFLQRPGQSPQLLIYLMSTRASGVSDRFSGSGSGTDFTLEISRVKAEDVGVYYCQQLVEYPLTFGAGTKLELK
notes: Murine antibody; also called donor antibody
B4 returned a Kd in the assay with GST-human NOGO-A56 [7] of about 1 nM.
